Article PMC2820081

Target: endogenous optineurin (rat (endogenous in RGC5)) (UniProt Q8R5M4)
Assay: native gel or EMSA; native blue gel electrophoresis (NativePAGE Novex Bis-Tris gel) of lysates in IP buffer from RGC5 cells or RGC5 cells transfected with pTarget-FLAG-OPTN, non-reducing; Western blot with anti-C-terminal optineurin or anti-FLAG

endogenous optineurin (from UniProt Q8R5M4 1-585) (natural protein)
stoichiometry N: 6
